The binders below were run against T1, Rhesus GIPR (rhesus, UniProt F7E1R9 22-466) (assay: cell-based or functional assay).
T1 sequence: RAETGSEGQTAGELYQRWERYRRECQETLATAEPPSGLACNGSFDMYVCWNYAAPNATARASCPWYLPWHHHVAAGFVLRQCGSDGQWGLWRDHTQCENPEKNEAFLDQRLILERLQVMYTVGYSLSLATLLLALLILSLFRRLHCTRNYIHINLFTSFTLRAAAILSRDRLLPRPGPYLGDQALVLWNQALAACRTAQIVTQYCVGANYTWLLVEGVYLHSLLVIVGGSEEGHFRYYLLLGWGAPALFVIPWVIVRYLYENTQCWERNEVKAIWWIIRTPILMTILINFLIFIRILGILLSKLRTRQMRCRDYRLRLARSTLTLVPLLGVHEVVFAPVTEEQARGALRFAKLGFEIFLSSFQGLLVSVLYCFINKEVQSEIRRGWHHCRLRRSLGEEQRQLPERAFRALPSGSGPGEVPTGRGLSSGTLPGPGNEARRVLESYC

Binder | Rhesus GIPR CAMP Assay (Conc. mAb @ 60% Inhibition in nM)
2C2.005.013 (antibody, human IgG1, lambda, N297G, V domains shown) VH: QMQVVQSGAEVKKPGASVKVSCKASGYTFTGYYMHWVRQAPGQGLEWMGWINPNSGGTNYAQKFQGRVTMTRDTSISTAYMELSSLRSDDTAVYYCARGGDYVFGTYRPHYYYGMDVWGQGTTVTVSS VL: not shown | 1.23 nM
11C1.007 (antibody, human IgG1, kappa, N297G, V domains shown) VH: QVPLVQSGAEVKKPGASVKVSCKASGYTFTGYYIHWVRQAPGQGLVWMGWISPNSGETSYAQKFQDRVTMTRDTSISTAYMELSRLRSDDTAVYFCTREATIFGMLIVPFDYWGQGTLVTVSS VL: DIVMTQSPDSLSVSLGERATINCKSSQSVLSSSNNKNYLAWYQQKPGQPPNLLIYWTSTRDSGVPDRFSGSGSGTDFTLTINSLQAEDVAVYYCQQYYRTPWTFGQGTKVEIKR | 0.4 nM
12H11.006 (antibody, human IgG1, kappa, N297G, V domains shown) VH: QVPLVQSGAEVKKPGASVKVSCKASGYTFTGYYIHWVRQAPGQGLEWMGWISPNNGDTNYAQKFQDRVTMTRDTSISTAYMELSRLRSDDTAVYYCAREATIFGMLIVPFDYWGQGTLVTVSS VL: DIVMTQSPDSLSVSLGERATINCKSSQSVLSSSNNKNYLAWYQQKPGQPPNLLIYWTSTRDSGVPDRFSGSGSGTDFTLTINSLQAEDVAVYYCQQYYRTPWTFGQGTKVEIKR | 0.59 nM
12H11.012 (antibody, human IgG1, kappa, N297G, V domains shown) VH: QVPLVQSGAEVKKPGASVKVSCKASGYTFTGYYIHWVRQAPGQGLEWMGWISPNNGETNYAQKFQDRVTMTRDTSISTAYMELSRLRSDDTAVYYCAREATIFGMLIVPFDYWGQGTLVTVSS VL: not shown | 0.57 nM
12H11.007 (antibody, human IgG1, kappa, N297G, V domains shown) VH: QVPLVQSGAEVKKPGASVKVSCKASGYTFTGYYIHWVRQAPGQGLEWMGWISPNQGDTNYAQKFQDRVTMTRDTSISTAYMELSRLRSDDTAVYYCTREATIFGMLIVPFDYWGQGTLVTVSS VL: DIVMTQSPDSLSVSLGERATINCKSSQSVLSSSNNKNYLAWYQQKPGQPPNLLIYWTSTRDSGVPDRFSGSGSGTDFTLTINSLQAEDVAVYYCQQYYRTPWTFGQGTKVEIKR | 0.56 nM
12H11.010 (antibody, human IgG1, kappa, N297G, V domains shown) VH: QVPLVQSGAEVKKPGASVKVSCKASGYTFTGYYIHWVRQAPGQGLEWMGWISPNNGDTNYAQKFQDRVTMTRDTSISTAYMELSRLRSDDTAVYYCAREATIFGMLIVPFDYWGQGTLVTVSS VL: not shown | 0.71 nM
12H11.009 (antibody, human IgG1, kappa, N297G, V domains shown) VH: QVPLVQSGAEVKKPGASVKVSCKASGYTFTGYYIHWVRQAPGQGLEWMGWISPNQGETNYAQKFQDRVTMTRDTSISTAYMELSRLRSDDTAVYYCAREATIFGMLIVPFDYWGQGTLVTVSS VL: not shown | 0.6 nM
11C1.008 (antibody, human IgG1, kappa, N297G, V domains shown) VH: QVPLVQSGAEVKKPGASVKVSCKASGYTFTGYYIHWVRQAPGQGLVWMGWISPNSGDTSYAQKFQDRVTMTRDTSISTAYMELSRLRSDDTAVYFCAREATIFGMLIVPFDYWGQGTLVTVSS VL: DIVMTQSPDSLSVSLGERATINCKSSQSVLSSSNNKNYLAWYQQKPGQPPNLLIYWTSTRDSGVPDRFSGSGSGTDFTLTINSLQAEDVAVYYCQQYYRTPWTFGQGTKVEIKR | 0.43 nM
12H11.011 (antibody, human IgG1, kappa, N297G, V domains shown) VH: QVPLVQSGAEVKKPGASVKVSCKASGYTFTGYYIHWVRQAPGQGLEWMGWISPNQGDTNYAQKFQDRVTMTRDTSISTAYMELSRLRSDDTAVYYCAREATIFGMLIVPFDYWGQGTLVTVSS VL: not shown | 0.47 nM
12H11 (antibody, human IgG1, kappa, N297G, V domains shown) VH: QVPLVQSGAEVKKPGASVKVSCKASGYTFTGYYIHWVRQAPGQGLEWMGWISPNNGDTNYAQKFQDRVTMTRDTSISTAYMELSRLRSDDTAVYYCTREATIFGMLIVPFDYWGQGTLVTVSS VL: DIVMTQSPDSLSVSLGERATINCKSSQSVLSSSNNKNYLAWYQQKPGQPPNLLIYWTSTRDSGVPDRFSGSGSGTDFTLTINSLQAEDVAVYYCQQYYRTPWTFGQGTKVEIKR | 0.79 nM
12H11.005 (antibody, human IgG1, kappa, N297G, V domains shown) VH: QVPLVQSGAEVKKPGASVKVSCKASGYTFTGYYIHWVRQAPGQGLEWMGWISPNNGETNYAQKFQDRVTMTRDTSISTAYMELSRLRSDDTAVYYCAREATIFGMLIVPFDYWGQGTLVTVSS VL: DIVMTQSPDSLSVSLGERATINCKSSQSVLSSSNNKNYLAWYQQKPGQPPNLLIYWTSTRDSGVPDRFSGSGSGTDFTLTINSLQAEDVAVYYCQQYYRTPWTFGQGTKVEIKR | 0.61 nM
12H11.008 (antibody, human IgG1, kappa, N297G, V domains shown) VH: QVPLVQSGAEVKKPGASVKVSCKASGYTFTGYYIHWVRQAPGQGLEWMGWISPNNGETNYAQKFQDRVTMTRDTSISTAYMELSRLRSDDTAVYYCTREATIFGMLIVPFDYWGQGTLVTVSS VL: DIVMTQSPDSLSVSLGERATINCKSSQSVLSSSNNKNYLAWYQQKPGQPPNLLIYWTSTRDSGVPDRFSGSGSGTDFTLTINSLQAEDVAVYYCQQYYRTPWTFGQGTKVEIKR | 0.56 nM
12H11.003 (antibody, human IgG1, kappa, N297G, V domains shown) VH: QVPLVQSGAEVKKPGASVKVSCKASGYTFTGYYIHWVRQAPGQGLEWMGWISPNQGDTNYAQKFQDRVTMTRDTSISTAYMELSRLRSDDTAVYYCAREATIFGMLIVPFDYWGQGTLVTVSS VL: DIVMTQSPDSLSVSLGERATINCKSSQSVLSSSNNKNYLAWYQQKPGQPPNLLIYWTSTRDSGVPDRFSGSGSGTDFTLTINSLQAEDVAVYYCQQYYRTPWTFGQGTKVEIKR | 0.6 nM
17B11.002.001 (antibody, human IgG1, lambda, N297G, V domains shown) VH: QMQLVQSGAEVKKPGASVKVSCKASGYTFTSYDINWVRQATGQGLEWMGWMNPNSGGTGYAQKFQGRVTMTRDTSISTAYMELSSLRSQDTAVYYCARGGDYVWGSYRPYYYYYGMDVWGQGTTVTVSS VL: QSVLTQPPSVSAAPGQKVTISCSGSSSNIGNNYVSWYQQLPGTAPKLLIYDNNKRPSGIPDRFSGSKSGTSATLGITGLQTGDEADYYCGTWDSSLSAVVFGGGTKLTVLG | 0.29 nM
17B11.002.002 (antibody, human IgG1, lambda, N297G, V domains shown) VH: QMQLVQSGAEVKKPGASVKVSCKASGYTFTSYDINWVRQATGQGLEWMGWMNPNSGNTGYAQKFQGRVTMTRDTSISTAYMELSSLRSQDTAVYYCARGGDYVWGSYRPYYYYYGMDVWGQGTTVTVSS VL: QSVLTQPPSVSAAPGQKVTISCSGSSSNIGNNYVSWYQQLPGTAPKLLIYDNNKRPSGIPDRFSGSKSGTSATLGITGLQTGDEADYYCGTWDSSLSAVVFGGGTKLTVLG | 0 nM
17B11.002.006 (antibody, human IgG1, lambda, N297G, V domains shown) VH: QMQLVQSGAEVKKPGASVKVSCKASGYTFTSYDINWVRQAPGQGLEWMGWMNPNSGNTGYAQKFQGRVTMTRDTSISTAYMELSSLRSDDTAVYYCARGGDYVWGSYRPYYYYYGMDVWGQGTTVTVSS VL: QSVLTQPPSVSAAPGQKVTISCSGSSSNIGNNYVSWYQQLPGTAPKLLIYDNNKRPSGIPDRFSGSKSGTSATLAITGLQTGDEADYYCGTWDSSLSAVVFGGGTKLTVLG | 0 nM
17B11.002.004 (antibody, human IgG1, lambda, N297G, V domains shown) VH: QMQLVQSGAEVKKPGASVKVSCKASGYTFTSYDINWVRQAPGQGLEWMGWMNPNSGGTGYAQKFQGRVTMTRDTSISTAYMELSSLRSDDTAVYYCARGGDYVWGSYRPYYYYYGMDVWGQGTTVTVSS VL: QSVLTQPPSVSAAPGQKVTISCSGSSSNIGNNYVSWYQQLPGTAPKLLIYDNNKRPSGIPDRFSGSKSGTSATLAITGLQTGDEADYYCGTFESSLSAVVFGGGTKLTVLG | 0.17 nM
17B11.002.007 (antibody, human IgG1, lambda, N297G, V domains shown) VH: QMQLVQSGAEVKKPGASVKVSCKASGYTFTSYDINWVRQATGQGLEWMGWMNPNSGGTGYAQKFQGRVTMTRDTSISTAYMELSSLRSQDTAVYYCARGGDYVFGSYRPYYYYYGMDVWGQGTTVTVSS VL: QSVLTQPPSVSAAPGQKVTISCSGSSSNIGNNYVSWYQQLPGTAPKLLIYDNNKRPSGIPDRFSGSKSGTSATLGITGLQTGDEADYYCGTWDSSLSAVVFGGGTKLTVLG | 0.9 nM
17B11.002.005 (antibody, human IgG1, lambda, N297G, V domains shown) VH: QMQLVQSGAEVKKPGASVKVSCKASGYTFTSYDINWVRQATGQGLEWMGWMNPNSGGTGYAQKFQGRVTMTRDTSISTAYMELSSLRSQDTAVYYCARGGDYVWGSYRPYYYYYGMDVWGQGTTVTVSS VL: QSVLTQPPSVSAAPGQKVTISCSGSSSNIGNNYVSWYQQLPGTAPKLLIYDNNKRPSGIPDRFSGSKSGTSATLAITGLQTGDEADYYCGTWDSSLSAVVFGGGTKLTVLG | 0.08 nM
17B11.002.003 (antibody, human IgG1, lambda, N297G, V domains shown) VH: QMQLVQSGAEVKKPGASVKVSCKASGYTFTSYDINWVRQATGQGLEWMGWMNPNSGGTGYAQKFQGRVTMTRDTSISTAYMELSSLRSQDTAVYYCARGGDYVWGSYRPYYYYYGMDVWGQGTTVTVSS VL: QSVLTQPPSVSAAPGQKVTISCSGSSSNIGNNYVSWYEQFPGTAPKLLIYDNNKRPSGIPDRFSGSKSGTSATLGITGLQTGDEADYYCGTWDSSLSAVVFGGGTKLTVLG | 0.08 nM
17B11.002 (antibody, human IgG1, lambda, N297G, V domains shown) VH: QMQLVQSGAEVKKPGASVKVSCKASGYTFTSYDINWVRQATGQGLEWMGWMNPNSGNTGYAQKFQGRVTMTRDTSISTAYMELSSLRSQDTAVYYCARGGDYVWGSYRPYYYYYGMDVWGQGTTVTVSS VL: QSVLTQPPSVSAAPGQKVTISCSGSSSNIGNNYVSWYEQFPGTAPKLLIYDNNKRPSGIPDRFSGSKSGTSATLGITGLQTGDEADYYCGTWDSSLSAVVFGGGTKLTVLG | 0.21 nM

From patent US20250376529A1 (Amgen, published 2025)
